The text below walks through data of paper PMC10897913 (iScience, 2024).

The experiment concerns the target T1, GST-DUB3 (human, UniProt Q6R6M4 1-530).
T1 sequence (looked up): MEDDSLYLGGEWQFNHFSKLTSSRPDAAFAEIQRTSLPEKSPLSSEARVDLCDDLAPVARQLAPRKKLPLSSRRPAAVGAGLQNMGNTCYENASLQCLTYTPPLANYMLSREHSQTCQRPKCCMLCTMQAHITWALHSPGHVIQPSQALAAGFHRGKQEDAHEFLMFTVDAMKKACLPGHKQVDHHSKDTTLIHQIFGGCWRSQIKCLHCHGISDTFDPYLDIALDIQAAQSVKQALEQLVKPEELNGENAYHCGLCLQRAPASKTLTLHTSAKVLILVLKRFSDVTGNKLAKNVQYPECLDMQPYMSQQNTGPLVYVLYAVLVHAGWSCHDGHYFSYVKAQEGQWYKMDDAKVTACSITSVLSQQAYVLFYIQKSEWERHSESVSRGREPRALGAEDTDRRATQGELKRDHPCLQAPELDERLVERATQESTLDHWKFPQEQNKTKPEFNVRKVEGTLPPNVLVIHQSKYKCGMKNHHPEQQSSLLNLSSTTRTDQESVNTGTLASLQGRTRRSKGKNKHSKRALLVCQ
The experiment in a line: pull-down.

B1: MAGEA3-His (natural protein, human, UniProt P43357 1-314, looked up)
chain: MPLEQRSQHCKPEEGLEARGEALGLVGAQAPATEEQEAASSSSTLVEVTLGEVPAAESPDPPQSPQGASSLPTTMNYPLWSQSYEDSSNQEEEGPSTFPDLESEFQAALSRKVAELVHFLLLKYRAREPVTKAEMLGSVVGNWQYFFPVIFSKASSSLQLVFGIELMEVDPIGHLYIFATCLGLSYDGLLGDNQIMPKAGLLIIVLAIIAREGDCAPEEKIWEELSVLEVFEGREDSILGDPKKLLTQHFVQENYLEYRQVPGSDPACYEFLWGPRALVETSYVKVLHHMVKISGGPHISYPPLHEWVLREGEE
As for B1, the binding result is given as “binds”.
